Key:
Experiment in all cases: BioID2 proximity labelling, HEK293 cells
CBP = molecular target: T1, CBP (human, UniProt Q92793 2-2442)
T1 construct: Endogenous prey identified by mass spectrometry; also called CBP/p300 (with p300)

p300 = molecular target: T2, p300 (human, UniProt Q09472 2-2414)
T2 construct: Endogenous prey identified by mass spectrometry; also called EP300; CBP/p300 (with CBP)

[1] = molecular target: T3, SUZ12 tagged with BirA-FLAG (human; Aquifex aeolicus, UniProt Q15022 1-739)
T3 construct: not shown: BioID2 biotin ligase (BirA from Aquifex aeolicus) tag

[2] = molecular target: T4, SRF (Serum Response Factor) tagged with BirA-FLAG (human; Aquifex aeolicus, UniProt P11831 1-508)
T4 construct: not shown: BioID2 biotin ligase (BirA from Aquifex aeolicus) tag
T4 sequence (looked up): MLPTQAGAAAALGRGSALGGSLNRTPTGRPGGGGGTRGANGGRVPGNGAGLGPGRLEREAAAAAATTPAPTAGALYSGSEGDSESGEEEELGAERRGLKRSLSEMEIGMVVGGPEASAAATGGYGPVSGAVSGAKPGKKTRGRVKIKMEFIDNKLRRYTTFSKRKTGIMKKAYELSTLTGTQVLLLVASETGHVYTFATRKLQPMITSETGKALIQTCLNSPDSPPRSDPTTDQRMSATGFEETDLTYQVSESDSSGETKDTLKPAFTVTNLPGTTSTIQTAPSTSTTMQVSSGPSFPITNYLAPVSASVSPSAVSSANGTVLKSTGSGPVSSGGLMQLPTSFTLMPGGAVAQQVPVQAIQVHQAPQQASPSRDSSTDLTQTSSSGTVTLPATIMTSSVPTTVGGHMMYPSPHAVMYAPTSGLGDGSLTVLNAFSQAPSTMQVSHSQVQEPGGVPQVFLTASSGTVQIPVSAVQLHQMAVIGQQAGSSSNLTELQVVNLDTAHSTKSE

T1 sequence (Q92793 2-2442 limits assumed): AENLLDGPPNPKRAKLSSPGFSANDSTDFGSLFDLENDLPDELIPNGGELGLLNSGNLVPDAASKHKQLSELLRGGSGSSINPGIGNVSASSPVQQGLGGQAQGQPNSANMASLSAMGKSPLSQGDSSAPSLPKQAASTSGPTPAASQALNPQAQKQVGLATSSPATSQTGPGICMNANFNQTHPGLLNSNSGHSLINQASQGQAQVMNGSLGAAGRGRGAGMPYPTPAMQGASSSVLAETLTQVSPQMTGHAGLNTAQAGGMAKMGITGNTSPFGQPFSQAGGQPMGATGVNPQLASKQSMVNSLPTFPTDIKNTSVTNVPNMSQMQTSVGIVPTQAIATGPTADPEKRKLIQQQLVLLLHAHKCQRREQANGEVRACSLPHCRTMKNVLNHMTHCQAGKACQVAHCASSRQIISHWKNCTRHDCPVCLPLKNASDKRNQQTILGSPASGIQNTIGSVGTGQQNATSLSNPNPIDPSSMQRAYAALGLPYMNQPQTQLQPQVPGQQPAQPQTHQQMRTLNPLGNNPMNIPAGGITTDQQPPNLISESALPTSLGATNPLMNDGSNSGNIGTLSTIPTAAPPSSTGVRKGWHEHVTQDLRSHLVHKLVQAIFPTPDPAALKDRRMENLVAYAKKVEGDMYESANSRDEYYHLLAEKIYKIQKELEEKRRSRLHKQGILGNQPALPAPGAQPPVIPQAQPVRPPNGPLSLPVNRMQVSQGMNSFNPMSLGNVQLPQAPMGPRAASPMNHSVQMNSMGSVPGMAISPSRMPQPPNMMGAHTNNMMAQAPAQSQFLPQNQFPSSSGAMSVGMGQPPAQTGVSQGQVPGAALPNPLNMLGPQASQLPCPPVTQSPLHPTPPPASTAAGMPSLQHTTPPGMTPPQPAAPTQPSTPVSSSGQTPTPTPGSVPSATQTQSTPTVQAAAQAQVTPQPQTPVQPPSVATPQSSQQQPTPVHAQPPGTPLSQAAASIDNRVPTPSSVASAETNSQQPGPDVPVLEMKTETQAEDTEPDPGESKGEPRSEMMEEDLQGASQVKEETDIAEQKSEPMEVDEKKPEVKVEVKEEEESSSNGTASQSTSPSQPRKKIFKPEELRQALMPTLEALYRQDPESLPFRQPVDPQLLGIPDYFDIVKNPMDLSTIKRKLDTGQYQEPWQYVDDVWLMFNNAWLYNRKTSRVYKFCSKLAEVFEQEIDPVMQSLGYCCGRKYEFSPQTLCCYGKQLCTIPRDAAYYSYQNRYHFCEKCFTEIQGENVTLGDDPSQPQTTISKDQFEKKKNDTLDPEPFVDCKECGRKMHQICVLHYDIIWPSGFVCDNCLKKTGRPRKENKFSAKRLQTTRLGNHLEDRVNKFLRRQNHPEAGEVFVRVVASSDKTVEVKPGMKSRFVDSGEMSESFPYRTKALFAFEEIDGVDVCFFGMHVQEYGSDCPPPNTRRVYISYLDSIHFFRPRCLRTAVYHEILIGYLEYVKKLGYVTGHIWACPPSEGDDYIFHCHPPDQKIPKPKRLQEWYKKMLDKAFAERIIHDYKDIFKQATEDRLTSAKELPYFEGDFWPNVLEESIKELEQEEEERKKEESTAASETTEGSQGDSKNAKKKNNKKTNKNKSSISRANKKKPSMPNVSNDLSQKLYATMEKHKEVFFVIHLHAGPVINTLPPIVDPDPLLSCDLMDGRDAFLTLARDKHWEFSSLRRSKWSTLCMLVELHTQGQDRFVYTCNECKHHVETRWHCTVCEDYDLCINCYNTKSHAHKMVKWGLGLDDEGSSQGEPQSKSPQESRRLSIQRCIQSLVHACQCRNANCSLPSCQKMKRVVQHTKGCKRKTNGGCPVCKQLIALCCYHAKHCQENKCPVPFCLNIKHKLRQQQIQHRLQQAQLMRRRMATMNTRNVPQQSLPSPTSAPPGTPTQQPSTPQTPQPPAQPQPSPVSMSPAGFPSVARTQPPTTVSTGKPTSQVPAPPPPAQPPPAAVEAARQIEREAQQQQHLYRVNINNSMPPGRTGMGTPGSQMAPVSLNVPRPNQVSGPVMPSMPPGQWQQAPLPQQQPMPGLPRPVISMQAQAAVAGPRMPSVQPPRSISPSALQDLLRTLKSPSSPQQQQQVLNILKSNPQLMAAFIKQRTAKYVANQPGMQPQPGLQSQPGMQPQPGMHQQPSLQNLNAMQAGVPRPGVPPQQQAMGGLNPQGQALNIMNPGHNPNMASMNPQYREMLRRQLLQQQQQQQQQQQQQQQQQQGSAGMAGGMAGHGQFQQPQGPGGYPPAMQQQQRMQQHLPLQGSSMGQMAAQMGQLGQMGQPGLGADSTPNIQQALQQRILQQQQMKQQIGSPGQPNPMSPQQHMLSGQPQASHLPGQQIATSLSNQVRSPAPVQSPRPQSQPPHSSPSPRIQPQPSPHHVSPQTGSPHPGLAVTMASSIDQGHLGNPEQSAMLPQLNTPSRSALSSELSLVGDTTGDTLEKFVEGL
T2 sequence (Q09472 2-2414 limits assumed): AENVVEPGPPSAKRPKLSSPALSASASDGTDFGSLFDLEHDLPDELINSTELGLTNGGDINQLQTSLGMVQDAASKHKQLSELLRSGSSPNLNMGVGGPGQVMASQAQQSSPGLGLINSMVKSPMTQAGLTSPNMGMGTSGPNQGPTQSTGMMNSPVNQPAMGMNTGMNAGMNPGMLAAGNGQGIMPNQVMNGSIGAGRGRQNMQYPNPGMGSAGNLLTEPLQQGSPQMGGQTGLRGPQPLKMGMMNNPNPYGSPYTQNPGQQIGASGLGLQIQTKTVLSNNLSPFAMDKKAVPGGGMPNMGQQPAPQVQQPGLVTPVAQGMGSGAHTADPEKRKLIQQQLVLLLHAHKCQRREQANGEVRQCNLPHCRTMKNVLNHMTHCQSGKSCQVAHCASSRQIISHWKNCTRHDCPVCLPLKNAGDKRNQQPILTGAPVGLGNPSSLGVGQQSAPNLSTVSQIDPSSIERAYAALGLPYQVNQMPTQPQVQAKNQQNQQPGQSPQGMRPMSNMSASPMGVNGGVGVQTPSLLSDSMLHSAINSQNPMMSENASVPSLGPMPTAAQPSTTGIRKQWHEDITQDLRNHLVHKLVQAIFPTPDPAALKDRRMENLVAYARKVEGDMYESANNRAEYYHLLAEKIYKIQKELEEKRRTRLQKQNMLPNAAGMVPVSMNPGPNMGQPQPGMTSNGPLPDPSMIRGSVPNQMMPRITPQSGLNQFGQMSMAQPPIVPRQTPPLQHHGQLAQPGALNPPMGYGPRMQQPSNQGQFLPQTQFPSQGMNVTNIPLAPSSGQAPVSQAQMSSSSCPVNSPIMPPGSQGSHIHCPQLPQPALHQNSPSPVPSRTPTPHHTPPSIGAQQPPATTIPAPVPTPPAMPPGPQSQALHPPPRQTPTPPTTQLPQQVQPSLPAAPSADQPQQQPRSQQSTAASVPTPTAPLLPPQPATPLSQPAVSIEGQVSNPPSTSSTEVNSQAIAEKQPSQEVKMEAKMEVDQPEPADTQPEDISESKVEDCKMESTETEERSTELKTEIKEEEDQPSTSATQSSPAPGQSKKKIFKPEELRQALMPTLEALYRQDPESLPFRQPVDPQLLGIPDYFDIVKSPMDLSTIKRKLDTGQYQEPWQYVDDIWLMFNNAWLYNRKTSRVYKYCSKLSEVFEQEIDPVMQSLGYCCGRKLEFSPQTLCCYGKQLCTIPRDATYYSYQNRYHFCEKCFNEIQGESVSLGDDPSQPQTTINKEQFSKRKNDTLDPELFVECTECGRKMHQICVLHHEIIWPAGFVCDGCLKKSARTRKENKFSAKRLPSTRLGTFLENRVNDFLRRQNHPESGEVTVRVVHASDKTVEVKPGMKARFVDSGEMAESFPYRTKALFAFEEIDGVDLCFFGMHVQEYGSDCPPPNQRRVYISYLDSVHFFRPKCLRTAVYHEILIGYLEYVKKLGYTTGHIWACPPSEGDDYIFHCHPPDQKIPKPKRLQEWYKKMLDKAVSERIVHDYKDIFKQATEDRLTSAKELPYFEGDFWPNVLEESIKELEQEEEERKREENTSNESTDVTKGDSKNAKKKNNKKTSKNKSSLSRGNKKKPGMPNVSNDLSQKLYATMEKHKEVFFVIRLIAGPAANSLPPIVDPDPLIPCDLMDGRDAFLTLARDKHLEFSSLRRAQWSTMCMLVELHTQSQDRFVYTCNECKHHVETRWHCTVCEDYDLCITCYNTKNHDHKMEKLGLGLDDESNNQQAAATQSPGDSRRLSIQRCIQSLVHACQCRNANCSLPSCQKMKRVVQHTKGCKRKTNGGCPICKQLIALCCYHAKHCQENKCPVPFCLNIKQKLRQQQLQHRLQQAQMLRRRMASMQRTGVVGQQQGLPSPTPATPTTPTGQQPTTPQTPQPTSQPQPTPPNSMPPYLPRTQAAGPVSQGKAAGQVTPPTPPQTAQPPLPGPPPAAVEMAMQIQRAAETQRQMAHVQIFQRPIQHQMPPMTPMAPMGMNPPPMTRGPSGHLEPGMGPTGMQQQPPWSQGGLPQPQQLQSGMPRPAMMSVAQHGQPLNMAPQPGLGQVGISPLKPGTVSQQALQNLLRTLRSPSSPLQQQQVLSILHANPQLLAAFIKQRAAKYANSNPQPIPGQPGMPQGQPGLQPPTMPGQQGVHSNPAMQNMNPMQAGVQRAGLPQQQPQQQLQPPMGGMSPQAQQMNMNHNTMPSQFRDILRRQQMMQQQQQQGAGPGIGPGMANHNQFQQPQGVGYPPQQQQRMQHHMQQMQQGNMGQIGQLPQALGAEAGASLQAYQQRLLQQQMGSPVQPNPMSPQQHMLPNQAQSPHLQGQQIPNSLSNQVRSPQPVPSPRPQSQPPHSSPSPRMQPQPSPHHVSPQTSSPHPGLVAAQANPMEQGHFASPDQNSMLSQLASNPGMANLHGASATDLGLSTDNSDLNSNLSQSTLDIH

B1: SOX7 fused to BioID2 (BirA from Aquifex aeolicus) and FLAG (other, human;Aquifex aeolicus, UniProt Q9BT81 1-388, looked up)
chain: MASLLGAYPWPEGLECPALDAELSDGQSPPAVPRPPGDKGSESRIRRPMNAFMVWAKDERKRLAVQNPDLHNAELSKMLGKSWKALTLSQKRPYVDEAERLRLQHMQDYPNYKYRPRRKKQAKRLCKRVDPGFLLSSLSRDQNALPEKRSGSRGALGEKEDRGEYSPGTALPSLRGCYHEGPAGGGGGGTPSSVDTYPYGLPTPPEMSPLDVLEPEQTFFSSPCQEEHGHPRRIPHLPGHPYSPEYAPSPLHCSHPLGSLALGQSPGVSMMSPVPGCPPSPAYYSPATYHPLHSNLQAHLGQLSPPPEHPGFDALDQLSQVELLGDMDRNEFDQYLNTPGHPDSATGAMALSGHVPVSQVTPTGPTETSLISVLADATATYYNSYSVS
notes: Tetracycline-inducible bait in HEK293 Flp-In T-REx cells; not shown: BioID2 biotin ligase (BirA from Aquifex aeolicus), C-terminal tag
CBP
  binding result: binds
p300
  binding result: binds

B2: MTF2/PCL2 (other, human, UniProt Q9Y483 1-593, looked up)
chain: MRDSTGAGNSLVHKRSPLRRNQKTPTSLTKLSLQDGHKAKKPACKFEEGQDVLARWSDGLFYLGTIKKINILKQSCFIIFEDSSKSWVLWKDIQTGATGSGEMVCTICQEEYSEAPNEMVICDKCGQGYHQLCHTPHIDSSVIDSDEKWLCRQCVFATTTKRGGALKKGPNAKALQVMKQTLPYSVADLEWDAGHKTNVQQCYCYCGGPGDWYLKMLQCCKCKQWFHEACVQCLQKPMLFGDRFYTFICSVCSSGPEYLKRLPLQWVDIAHLCLYNLSVIHKKKYFDSELELMTYINENWDRLHPGELADTPKSERYEHVLEALNDYKTMFMSGKEIKKKKHLFGLRIRVPPVPPNVAFKAEKEPEGTSHEFKIKGRKASKPISDSREVSNGIEKKGKKKSVGRPPGPYTRKMIQKTAEPLLDKESISENPTLDLPCSIGRTEGTAHSSNTSDVDFTGASSAKETTSSSISRHYGLSDSRKRTRTGRSWPAAIPHLRRRRGRLPRRALQTQNSEIVKDDEGKEDYQFDELNTEILNNLADQELQLNHLKNSITSYFGAAGRIACGEKYRVLARRVTLDGKVQYLVEWEGATAS
[1]
  binding result: binds

B3: ELK1 (other, human, UniProt P19419 1-428, looked up)
chain: MDPSVTLWQFLLQLLREQGNGHIISWTSRDGGEFKLVDAEEVARLWGLRKNKTNMNYDKLSRALRYYYDKNIIRKVSGQKFVYKFVSYPEVAGCSTEDCPPQPEVSVTSTMPNVAPAAIHAAPGDTVSGKPGTPKGAGMAGPGGLARSSRNEYMRSGLYSTFTIQSLQPQPPPHPRPAVVLPSAAPAGAAAPPSGSRSTSPSPLEACLEAEEAGLPLQVILTPPEAPNLKSEELNVEPGLGRALPPEVKVEGPKEELEVAGERGFVPETTKAEPEVPPQEGVPARLPAVVMDTAGQAGGHAASSPEISQPQKGRKPRDLELPLSPSLLGGPGPERTPGSGSGSGLQAPGPALTPSLLPTHTLTPVLLTPSSLPPSIHFWSTLSPIAPRSPAKLSFQFPSSGSAQVHIPSISVDGLSTPVVLSPGPQKP
[2]
  binding result: binds
